Blank lines part the entries; values can stand above or below the binder they belong to. Starred links: 1 amine or outer side, 2 acyl side, 3 side chain; linkers in the order of their positions; H or OH if unused. Positions of bridges follow the written chain, without caps; N, C: chain ends. Non-standard residues stand in square brackets, D forms with d. Primed or numbered codes have the meaning given here. *: point of attachment. Aph(SaPr)(5) = 4-amino-L-phenylalanine acylated on the ring amine with 3-sulfamoylpropanoic acid, NS(=O)(=O)CCC(=O)Nc1ccc(C[C@H](N[*:1])C(=O)[*:2])cc1; Aph(SaPr)″ = 4-amino-L-phenylalanine, ring amine acylated with 3-sulfamoylpropanoic acid, NS(=O)(=O)CCC(=O)Nc1ccc(C[C@H](N[*:1])C(=O)[*:2])cc1; Ttds(4) = 1,13-diamino-4,7,10-trioxatridecan-succinamic acid spacer, O=C(CCC(=O)[*:2])NCCCOCCOCCOCCCN[*:1]; PPAc(3) = 4-carboxymethyl piperazine linker between DOTA and Gln1, O=C(CN1CCN([*:1])CC1)[*:2]; 111In‑DOTA = O=C([O-])CN1CCN(CC(=O)[O-])CCN(CC(=O)*)CCN(CC(=O)[O-])CC1.[111In+3]; Phe(3-NHCO(CH2)3SO2NH2) = N[C@@H](Cc1cccc(NC(=O)CCCS(N)(=O)=O)c1)C(=O)O; APAc″ = 2-(4-(amino)piperidin-1-yl)acetic acid, NC1CCN(CC(=O)*)CC1; DOTA = O=C(O)CN1CCN(CC(=O)O)CCN(CC(=O)*)CCN(CC(=O)O)CC1; Biotin = O=C1N[C@H]2[C@H](CS[C@H]2CCCCC(=O)*)N1; PPAc = 4-carboxymethyl piperazine linker; mXylylene = c1cc(C[*:1])cc(C[*:2])c1; Cy5SO3 = Cy5 dye with one sulfonate; APAc = not defined here; Dap = NC[C@H](N)C(=O)O; Sni = not defined here
What was measured:
[1] = molecular target: T1, canine carbonic anhydrase 9 (CAIX) (dog); assay: radioligand binding, 111In-labeled compound, CHO cells with dog CAIX; pKD category A: >8.0
T1 construct: On transfected CHO-VGT cells; also called dog CAIX
T1 sequence (chain, as listed by the source limits assumed): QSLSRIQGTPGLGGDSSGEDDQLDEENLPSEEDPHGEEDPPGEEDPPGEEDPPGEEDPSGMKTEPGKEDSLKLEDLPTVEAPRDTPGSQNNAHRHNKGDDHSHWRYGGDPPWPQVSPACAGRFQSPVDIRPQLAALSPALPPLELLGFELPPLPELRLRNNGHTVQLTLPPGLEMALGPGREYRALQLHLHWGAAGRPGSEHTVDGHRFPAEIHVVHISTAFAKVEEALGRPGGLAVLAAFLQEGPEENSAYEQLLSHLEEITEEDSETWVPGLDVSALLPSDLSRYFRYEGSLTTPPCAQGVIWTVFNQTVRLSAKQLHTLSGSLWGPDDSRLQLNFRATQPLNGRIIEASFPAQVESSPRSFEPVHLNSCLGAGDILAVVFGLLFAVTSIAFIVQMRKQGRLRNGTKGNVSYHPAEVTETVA
Experimental: (§5) CHO-VGT cells were transfected with the human, dog, and mouse CAIX (InSCREENex GmbH) and cultured in Ham's F-12 medium (Sigma-Aldrich #N4888) supplemented with 10% fetal bovine serum (FCS), 2 mM L-glutamine, 100 U/mL Penicillin, and 0.1 mg/mL streptomycin. […] Cell concentrations were adjusted to 3×10⁵ mL⁻¹, and 1.000 μL of the suspension per well were dispensed into flat-clear-bottom 24 well plates.
(§6) Approximately 24 hours after re-seeding, the medium was aspirated and the cells were washed once with 1000 μL assay medium (Ham's medium without additives). To determine total binding, 700 μL of assay medium and 100 μL of the radioligand dilutions were added to the wells in triplicates. To determine non-specific binding, 600 μL of binding medium, 100 μL of the radioligand dilutions and 100 μL of a blocking solution containing 8 μM non-labeled compound were added to the wells in triplicates. […] An aliquot of each radioligand dilution was included in the gamma counter measurements to allow for determination of their actual concentrations via their known specific activity.

[2] = molecular target: T2, murine carbonic anhydrase 9 (CAIX) (mouse, UniProt Q8VHB5 32-437); assay: radioligand binding, 111In-labeled compound, CHO cells with mouse CAIX; pKD category B: 7.1-8.0
T2 construct: On transfected CHO-VGT cells; also called mouse CAIX
T2 sequence (Q8VHB5 32-437 limits assumed): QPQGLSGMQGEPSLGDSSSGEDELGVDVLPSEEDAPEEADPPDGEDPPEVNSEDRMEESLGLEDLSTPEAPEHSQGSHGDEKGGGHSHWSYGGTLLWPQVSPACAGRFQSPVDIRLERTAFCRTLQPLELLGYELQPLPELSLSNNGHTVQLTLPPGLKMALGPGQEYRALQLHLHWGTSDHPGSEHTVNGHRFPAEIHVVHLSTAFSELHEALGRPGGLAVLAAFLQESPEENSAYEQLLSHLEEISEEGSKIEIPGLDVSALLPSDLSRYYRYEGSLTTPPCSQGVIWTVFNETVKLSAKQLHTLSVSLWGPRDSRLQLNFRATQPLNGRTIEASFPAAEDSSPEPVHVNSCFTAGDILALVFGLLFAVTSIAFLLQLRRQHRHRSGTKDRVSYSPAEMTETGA

[3] = molecular target: T2, murine carbonic anhydrase 9 (CAIX); assay: radioligand binding, 111In-labeled compound, CHO cells with mouse CAIX; pKD category A: >8.0
Experimental: as §5, §6

[4] = molecular target: T3, human carbonic anhydrase IX (CAIX) (human, UniProt Q16790 38-459); assay: radioligand binding, 111In-labeled compound, CHO cells with human CAIX; pKD category A: >8.0
Experimental: as §5, §6

[5] = molecular target: Human carbonic anhydrase IX Fc-fusion protein (CAIX, Sino Biological, 10107-H02H) (human, UniProt Q16790 38-414); assay: SPR (Biacore T200), CAIX-Fc captured by anti-human Fc antibody, peptide as analyte, single cycle kinetics, 25 C, 1:1 Langmuir fit
Experimental: Surface Plasmon Resonance (SPR) studies were performed on a Biacore™ T200 using a ligand capture approach. Basically, anti-human Fc antibodies were immobilized on the surface of a sensor chip and CAIX was captured on the functionalized surface via its Fc Tag.

[6] = molecular target: T2, murine carbonic anhydrase 9 (CAIX); assay: radioligand binding, 111In-labeled compound, CHO cells with mouse CAIX; pKD category C: 6.1-7.0
[7] = molecular target: T4, Fc-fusion protein of human carbonic anhydrase IX (human, UniProt Q16790 38-414); assay: SPR, captured hCAIX-Fc; pKD category A: >8.0
[8] = molecular target: T4, Fc-fusion protein of human carbonic …; assay: SPR, captured hCAIX-Fc; t1/2 category A: >15.0 min
[9] = molecular target: T3, human carbonic anhydrase IX (CAIX); assay: FACS competition, HT-29 cells, tracer printed 3BP-414 (probably 3BP-4149); pIC50 category B: 7.1-8.0
Experimental: (§1) CAIX-expressing human HT-29 colorectal cancer cells (DSMZ, RRID: CVCL_0320) were cultured in McCoys's 5A modified medium (Biochrom, #F1015) including 10% fetal calf serum (FCS), 2 mM L-glutamine, 100 U/ml penicillin and 100 μg/mL streptomycin. Cells were detached with Accutase (Biolegend, #423201) and washed in FACS buffer (PBS including 1% FCS). Cells were diluted in FACS buffer to a final concentration of 500.000 cells per ml. 200 μL of the cell suspension were transferred to a u-shaped non-binding 96-well plate (Greiner) and cells were washed in ice-cold FACS buffer.
(§2) When biotinylated compounds were used an additional incubation step with 1 μg/mL APC-Streptavidin (Miltenyi; #130-106-791) in 50 μL FACS buffer for 30 minutes on ice was performed.
(§3) Cells were washed twice with ice-cold FACS buffer and analyzed in an Attune NxT flow cytometer (Thermo Fisher). Median fluorescence intensities (MFI) of the APC/Cy5-channel were calculated by Attune NxT software.

[10] = molecular target: T5, canine carbonic anhydrase 9 (CAIX) (dog); assay: radioligand saturation binding on CHO-dgCAIX cells, 8 h at 37 °C, experiment ii
T5 construct: Expressed on transfected CHO cells (CHO-dogCA9); also called dgCAIX; dog CAIX
T5 sequence (chain, as listed by the source limits assumed): as the sequence (chain, as listed by the source limits assumed) above
Experimental: (§7) The radioligand saturation binding on CHO-huCAIX and dgCAIX was determined as follows. […] To determine total binding, 700 μL of binding medium and 100 μL of the radioligand dilutions were added to the wells in triplicates. […] The plates were incubated for 8 h at 37° C. under standard cell culture conditions (5% CO2). At the end of the incubation time the plates were placed on ice while aspirating the radioligand solutions. Aliquots of the 20 nM supernatants were transferred to HPLC vials for analysis of radioligand stability over the incubation time. Subsequently, the cells were washed with ice-cold PBS (0.5 mL, 1 mL, 1 mL). 300 μL of RIPA buffer containing PIC was added to each well and the plates were placed on a shaker for 10 min at ambient temperature. 200 μL of the cell lysate of each well was transferred to gamma-counting tubes. Their associated radioactivity was counted using a gamma counter and normalized to the measured protein concentration of each well (see chapter 6.3.7 BCA protein assay). An aliquot of each radioligand dilution was included in the gamma counter measurements to allow for determination of the actual radioligand concentrations in the dilution series.

[11] = molecular target: T6, human carbonic anhydrase IV (CAIV), biotinylated (human, UniProt P22748 19-283, limits assumed, biotinylated); assay: SPR, biotinylated CAIV captured (Biotin CAPture)
T6 construct: Bought (SinoBiological, Cat # printed 10472-1H081H); also called hCAIV-bio
T6 sequence (P22748 19-283 limits assumed): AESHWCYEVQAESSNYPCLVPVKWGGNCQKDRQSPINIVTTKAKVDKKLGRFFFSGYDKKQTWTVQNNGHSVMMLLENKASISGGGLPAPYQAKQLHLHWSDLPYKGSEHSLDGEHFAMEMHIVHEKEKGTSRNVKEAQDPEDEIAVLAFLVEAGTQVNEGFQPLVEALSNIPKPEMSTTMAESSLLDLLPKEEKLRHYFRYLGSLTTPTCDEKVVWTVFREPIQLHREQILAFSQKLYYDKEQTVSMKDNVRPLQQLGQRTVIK
Source text: (§4) For each test compound, SPR raw data in the form of resonance units (RU) were plotted as sensorgrams using the Biacore™ T200 control software. The signal from the blank sensorgram was subtracted from that of the test compound sensorgram (blank corrected). The blank corrected sensorgram was corrected for baseline drift by subtracting the sensorgram of a SCK run without the test compound (running buffer only). […] Raw data and fit results were imported as text files in IDBS. The pKD value (negative decadic logarithm of dissociation constant) was calculated in the IDBS excel template.

[12] = molecular target: T7, human carbonic anhydrase XII (CAXII), biotinylated (human, UniProt O43570 25-301, biotinylated); assay: SPR, biotinylated CAXII captured (Biotin CAPture)
T7 construct: Bought (SinoBiological Cat #10617-H08H); also called hCAXII-bio
T7 sequence (O43570 25-301 limits assumed): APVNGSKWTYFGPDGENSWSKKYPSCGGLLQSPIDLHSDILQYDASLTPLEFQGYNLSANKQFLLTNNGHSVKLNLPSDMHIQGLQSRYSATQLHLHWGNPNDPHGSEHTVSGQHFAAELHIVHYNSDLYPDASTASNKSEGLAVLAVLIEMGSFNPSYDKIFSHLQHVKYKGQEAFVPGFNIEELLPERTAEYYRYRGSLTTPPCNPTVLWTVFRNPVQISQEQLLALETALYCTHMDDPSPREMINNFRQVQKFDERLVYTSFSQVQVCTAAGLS
Source text: as §4

[13] = molecular target: T8, human carbonic anhydrase XIV (CAXIV), biotinylated (human, UniProt Q9ULX7 16-290, biotinylated); assay: SPR, biotinylated CAXIV captured (Biotin CAPture)
T8 construct: Bought (SinoBiological Cat #10458-H08H); also called hCAXIV-bio
T8 sequence (Q9ULX7 16-290 limits assumed): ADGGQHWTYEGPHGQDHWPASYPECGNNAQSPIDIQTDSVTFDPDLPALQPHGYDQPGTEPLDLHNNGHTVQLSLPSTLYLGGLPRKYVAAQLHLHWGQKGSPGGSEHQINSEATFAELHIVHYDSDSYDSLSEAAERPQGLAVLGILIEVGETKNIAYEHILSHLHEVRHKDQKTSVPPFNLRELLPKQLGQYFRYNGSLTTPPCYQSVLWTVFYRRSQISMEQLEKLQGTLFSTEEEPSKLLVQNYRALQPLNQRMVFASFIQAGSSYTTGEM
Source text: as §4

[14] = molecular target: T4, Fc-fusion protein of human carbonic …; assay: SPR, CAIX; pKD category A: >8.0
Experimental: Stock solutions of test compounds were prepared by dissolving each compound in DMSO. DMSO stock solution were diluted 1:1000 in Running Buffer without DMSO. […] SPR binding analyses were performed in Single Cycle Kinetic (SCK) mode at 25° C.
as §4

[15] = molecular target: T3, human carbonic anhydrase IX (CAIX); assay: FACS competition, HT-29 cells, tracer 3BP-2776; pIC50 category A: >8.0
Experimental: as §1, §2, §3

[16] = molecular target: T9, human carbonic anhydrase 9 (CAIX) (human, UniProt Q16790 38-459); assay: FACS binding assay on CAIX-expressing HT-29 cells, biotinylated compound detected with APC-streptavidin; pEC50 category (B = pEC50 between 7.1 and 8.0)
Experimental: as §1, §2, §3

[17] = molecular target: T10, canine carbonic anhydrase 9 (CAIX) (dog); assay: radioligand saturation binding on CHO cells with dog CAIX, 8 h at 37 C
T10 construct: also called dog CAIX; dgCAIX
T10 sequence (chain, as listed by the source limits assumed): as the sequence (chain, as listed by the source limits assumed) above
Experimental: as §7

[18] = molecular target: T9, human carbonic anhydrase 9 (CAIX); assay: FACS binding assay on CAIX-expressing HT-29 cells, Cy5-labeled compound; pEC50 category (A = pEC50 >8.0)
Experimental: as §1, §2, §3

Binder: {111In‑DOTA}-ECE[dP]D[Phe(3-NHCO(CH2)3SO2NH2)]LTW[Dap]C-NH2 (lactam 1-10; linker 2-11 via mXylylene, also called 3BP-4503 (111In-labeled)) [111In-3BP-4503]
- pKD [1]: > 8 pkd
- pKD [3]: > 8 pkd
- pKD [4]: > 8 pkd

B1: natLu-DPI-4452 (LuDOTA-PPAc-Gln-[Cys(3MeBn)-Glu-pro-Asp-Af3(Cpsu)-Leu-Thr-Trp-Ser-Cys]-NH2) (peptide)
peptide: {DOTA-PPAc(3)}-QCE[dP]D[Phe(3-NHCO(CH2)3SO2NH2)]LTWSC-NH2
modifications: linker 2-11 via mXylylene; also: natLu chelated by N-terminal DOTA
notes: Lutetium complex of DPI-4452; also called 3BP-4555
- t1/2 (dissociation half-life) [5]: 2.05 h

B3: [^111In]In-DPI-4452 (peptide)
peptide: {DOTA-PPAc}-QCE[dP]D[Phe(3-NHCO(CH2)3SO2NH2)]LTWSC-NH2
modifications: linker 2-11 via mXylylene; also: 111In complexed in DOTA
notes: Cyclic peptide with chelator DOTA complexing In-111; X stands for the non-natural residue Af3(Cpsu); also called ^111In-DOTA-PPAc-Q-[C(3MeBn)-EPD-Af3(Cpsu)-LTWSC]-NH2; ^111In-3BP-4452
- pKd [10]: 9.5 -log10(M)

Binder: {DOTA}-ECE[dP]D[Phe(3-NHCO(CH2)3SO2NH2)]LTW[Dap]C-NH2 (lactam 1-10; linker 2-11 via mXylylene, also called DPI-4503) [3BP-4503]
- pKD [11]: < 6 pkd
- pKD [12]: < 6 pkd
- pKD [13]: < 6 pkd
- pKD [7]: > 8 pkd
- t1/2 (half-life of the complex, SPR) [8]: > 0.25 h
- pKD [14]: > 8 pkd
- pIC50 [15]: > 8 pic50

B5: [111In]In-DPI-4452: 111In-DOTA-PPAc-Q-[C(3MeBn)-EPD-Af3(Cpsu)-LTWSC]-NH2 (peptide)
peptide: {DOTA-PPAc}-QCE[dP]D[Phe(3-NHCO(CH2)3SO2NH2)]LTWSC-NH2
modifications: linker 2-11 via mXylylene; also: 111In complexed in DOTA
notes: also called 111In-3BP-4452; In-111-labeled DPI-4452
- pKd [17]: ≥ 9

Binder: {DOTA-APAc″}-VDCE[dP]DWLTW[Dap]C-NH2 (lactam 2-11; linker 3-12 via mXylylene) [3BP-4174]
- pKD [11]: < 6 pkd
- pKD [12]: < 6 pkd
- pKD [13]: < 6 pkd
- pKD [7]: > 8 pkd
- t1/2 (half-life of the complex, SPR) [8]: > 0.25 h
- pKD [14]: > 8 pkd

B6: [111In]In-DPI-4501: 111In-DOTA-Q-[C(3MeBn)-EPD-Aph(SaPr)-LTWSC]-NH2 (peptide)
peptide: {DOTA}-QCE[dP]D[Aph(SaPr)″]LTWSC-NH2
modifications: linker 2-11 via mXylylene; also: 111In complexed in DOTA
notes: also called 111In-3BP-4501; In-111-labeled DPI-4501
- pKd [17]: ≥ 9

Binder: {111In‑DOTA}-QCE[dP]D[Aph(SaPr)(5)]LTWSC-NH2 (linker 2-11 via mXylylene, also called [111In]In-DPI-4501) [111In-3BP-4501]
- pKD [1]: > 8 pkd
- pKD [2]: 7.1 to 8 pkd

More lines, now with the values ahead:

- pKD [1]: > 8 pkd
- pKD [2]: 7.1 to 8 pkd
Binder: {111In‑DOTA-PPAc}-QCE[dP]D[Phe(3-NHCO(CH2)3SO2NH2)]LTWSC-NH2 (linker 2-11 via mXylylene, also called [111In]In-DPI-4452) [111In-3BP-4452]

- pKD [1]: > 8 pkd
- pKD [6]: 6.1 to 7 pkd
- pKD [4]: > 8 pkd
Binder: {111In‑DOTA-APAc″}-VYCE[dP]DWLTWSC-NH2 (linker 3-12 via mXylylene, also called 3BP-3583 (111In-labeled)) [111In-3BP-3583]

- pKD [7]: > 8 pkd
- t1/2 (half-life of the complex, SPR) [8]: > 0.25 h
- pIC50 [9]: 7.1 to 8 pic50
Binder: {DOTA-Sni}-YCE[dP]D[Phe(3-NHCO(CH2)3SO2NH2)]LTWSC-NH2 (linker 2-11 via mXylylene; reading uncertain) [3BP-4454]

- t1/2 (dissociation half-life) [5]: 1.87 h
B2: natGa-DPI-4452 (GaDOTA-PPAc-Gln-[Cys(3MeBn)-Glu-pro-Asp-Af3(Cpsu)-Leu-Thr-Trp-Ser-Cys]-NH2) (peptide)
peptide: {DOTA-PPAc(3)}-QCE[dP]D[Phe(3-NHCO(CH2)3SO2NH2)]LTWSC-NH2
modifications: linker 2-11 via mXylylene; also: natGa chelated by N-terminal DOTA
notes: Gallium complex of DPI-4452; also called 3BP-4529

- pEC50 [16]: 7.1 to 8 pec50
B4: 3BP-2775: H-Met-Gln-[Cys(3MeBn)-Glu-Ile-Trp-Val-Asp-Gly-Trp-Val-Thr-Cys]-Ttds-Lys(Bio)-NH2 (peptide)
peptide: H-MQCEIWVDGWVTC[Ttds(4)]K(Biotin)-NH2
modifications: linker 3-13 via mXylylene
SMILES: CC[C@H](C)[C@@H]1NC(=O)[C@H](CCC(=O)O)NC(=O)[C@@H](NC(=O)[C@H](CCC(N)=O)NC(=O)[C@@H](N)CCSC)CSCc2cccc(c2)CSC[C@@H](C(=O)NCCCOCCOCCOCCCNC(=O)CCC(=O)N[C@@H](CCCCNC(=O)CCCC[C@@H]2SC[C@@H]3NC(=O)N[C@@H]32)C(N)=O)NC(=O)[C@H]([C@@H](C)O)NC(=O)[C@H](C(C)C)NC(=O)[C@H](Cc2c[nH]c3ccccc23)NC(=O)CNC(=O)[C@H](CC(=O)O)NC(=O)[C@H](C(C)C)NC(=O)[C@H](Cc2c[nH]c3ccccc23)NC1=O
notes: Cyclic peptide, biotinylated

- pKD [11]: < 6 pkd
- pKD [12]: < 6 pkd
- pKD [13]: < 6 pkd
- pKD [7]: > 8 pkd
- t1/2 (half-life of the complex, SPR) [8]: > 0.25 h
- pKD [14]: > 8 pkd
Binder: {DOTA-APAc}-VYCE[dP]DWLTWSC-NH2 (linker 3-12 via mXylylene; reading uncertain) [3BP-3583]

- t1/2 (dissociation half-life) [5]: 1.65 h
B7: DOTA-PPAc-Gln-[Cys(3MeBn)-Glu-pro-Asp-Af3(Cpsu)-Leu-Thr-Trp-Ser-Cys]-NH2 (peptide)
peptide: {DOTA-PPAc}-QCE[dP]D[Phe(3-NHCO(CH2)3SO2NH2)]LTWSC-NH2
modifications: linker 2-11 via mXylylene
notes: Synthetic cyclic peptide with uncomplexed DOTA; X stands for the non-natural residue Af3(Cpsu); also called DPI-4452; 3BP-4452

- pEC50 [18]: > 8 pec50
Binder: {Cy5SO3-APAc″}-VYCE[dP]DWLTWSC-NH2 (linker 3-12 via mXylylene, Cyclic peptide with a fluorophore) [3BP-4149: Cy5SO3-APAc-Val-Tyr-[Cys(3MeBn)-Glu-pro-Asp-Trp-Leu-Thr-Trp-Ser-Cys]-NH2]

From US20250339569A1 (3B PHARMACEUTICALS, published 2025)
